The target of this test is T1, SARS-CoV-2 S1亚基 (SARS-CoV-2, UniProt P0DTC2 16-685).
T1 construct: also called S1蛋白
Description: ELISA, coated S1, antibody detected with HRP goat anti-human IgG.

Substitutions are numbered along the chain they refer to.

B1: 抗体37G2 (antibody, V domains shown)
VH: QVQLVQSGAEVKKPGSSVKVSCKASGGTFSSYAITWVRQAPGQGLEWMGGIIPIFGTANFAQKFQGRVTITADESTSTAYMELSSLRSEDTAVYYCAHLGGFADPFDYWGQGTLVTVSS
VL: EIVLTQSPATLSLSPGERATLSCRASQSVSNYLAWYQQKAGQAPRVLIYDAFNRATGIPARFSGSGSGTDFTLTISSLEPEDFAVYYCQQRSNWPPRITFGQGTRLEIK
Turning to B1, the binding result is “no binding (tested: 1 μg/mL)”.

B2: 抗体31C2 (antibody, V domains shown)
VH: QVQLVQSGAEVKKPGSSVKVSCKASGGTFSSYAISWVRQAPGQGLEWMGGIIPIFGTTNYAQKFQGRVTITADESTSTAYMELNSLRSEDTAVYYCAGRSAYGDKGYYFDYWGQGTLVTVSS
VL: B1 VL with Y32F, A40P, V46L, F52S, E79Q, R97Q, I98E, R105K, L106V
As to B2, the binding result is “no binding (tested: 1 μg/mL)”.

The values above are taken from CN112552399A (HENGYI BIOMEDICAL TECH SHANGHAI CO LTD, dated 2021).
